Experimental data taken from PMC6526389.
pIC50: −log10 of the molar value.

Assays:
[1] = target: HA-tagged human CXCR2 expressed on L1.2 cells (human) (UniProt P25025); test: radioligand binding; competition of increasing concentrations of unlabeled CXCL8 (pre-incubated with H292 or H575 culture supernatant, then Pefabloc SC) against [125I]-CXCL8 on L1.2 cells expressing HA-CXCR1 or HA-CXCR2; n = 6
[2] = target: HA-tagged human CXCR1 expressed on L1.2 cells (human) (UniProt P25024); test: as above

- pIC50 [1]: 8.06
- pIC50 [2]: 8.09
Substance: Recombinant human CXCL8, 72 aa form (CXCL8^1–72), intact (incubated with control H575 supernatant) (ligand)
